The test concerns the target T1, purified full-length recombinant mouse USAG-1 (mouse, UniProt Q9CQN4 24-206).
T1 construct: also called purified recombinant mouse USAG-1 protein
T1 sequence (looked up): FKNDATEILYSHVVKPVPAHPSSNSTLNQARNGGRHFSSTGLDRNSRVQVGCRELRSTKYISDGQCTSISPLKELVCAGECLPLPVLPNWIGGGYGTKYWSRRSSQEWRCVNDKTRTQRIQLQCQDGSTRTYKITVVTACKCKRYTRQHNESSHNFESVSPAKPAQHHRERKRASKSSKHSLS
As to the kind of experiment: BLI (Octet Red), antibody immobilised, mouse USAG-1 at 10, 30 and 100 nM, global fitting. The method, then:
For the antibody obtained in Example 1, affinity (KD values) was determined by using a BLI method based on Octet (registered trademark) Red (manufactured by Pall ForteBio). Specifically, each antibody was immobilized on the biosensor, the purified recombinant mouse USAG-1 protein was added at three different concentrations (10 nM, 30 nM, 100 nM), and binding and dissociation curves were obtained. The affinities were calculated by subjecting the obtained curves to global fitting with an analysis program attached to the Octet device.

One may read the Kd as the free concentration of one partner at which half of the binding sites on the other are occupied at equilibrium, for simple one-to-one binding.

B1: mouse anti-USAG-1 neutralizing antibody B48C (antibody, V domains shown)
VH: EVQLQQSGAELVRPGASVKLSCTASGFNIKDDYMHWVKQRPEQGLEWIGWIDPENGDTEYASKFQGKATITADTSSNTAYLQLSSLTSEDTAVYYCITPYYYGSSFSYWYFDVWGTGTTVTVSS
VL: DVLMTQTPLSLPVSLGDQASISCRSSQSIVHSNGNTYLEWYLQKPGQSPKLLIYKVSNRFSGVPDRFSGSGSGTDFTLKISRVEAEDLGVYYCFQGSHVPWTFGGGTKLEIKR
notes: Mouse monoclonal from a hybridoma (USAG-1 KO mouse immunised with rat USAG-1)
On to B1, for which the Kd turned out to be 3.26 nM.

(Values after patent US20250136674A1 (KYOTO UNIVERSITY, published 2025).)
